Results from patent US12018058B2, “Compositions and methods for diagnosing and/or treating kidney injury” (Boston Medical Center Corporation, priority 2018, dated 2024).
Residue numbers refer to the chain shown, from its start. In names and notes the source's numbering stands. Entries after “also recorded” stand apart in the source; their conditions may differ.

B1: normal mimic NPM: flag-tagged NPM phosphomutant T86A-S88A-T95A-T234E-S242E expressed by lentivirus (protein)
chain: MEDSMDMDMSPLRPQNYLFGCELKADKDYHFKVDNDENEHQLSLRTVSLGAGAKDELHIVEAEAMNYEGSPIKVTLATLKMSVQPAVALGGFEIAPPVVLRLKCGSGPVHISGQHLVAVEEDAESEDEEEEDVKLLSISGKRSAPGGGSKVPQKKVKLAADEDDDDDDEEDDDEDDDDDDFDDEEAEEKAPVKKSIRDTPAKNAQKSNQNGKDSKPSSTPRSKGQESFKKQEKEPKTPKGPESVEDIKAKMQASIEKGGSLPKVEAKFINYVKNCFRMTDQEAIQDLWQWRKSL
modifications: left off: small tags and cut ends
notes: flag-tagged NPM phosphomutant T86A-S88A-T95A-T234E-S242E expressed by lentivirus
B2: stress mimic NPM: flag-tagged NPM phosphomutant T86E-S88E-T95E-T234A-S242A expressed by lentivirus (protein)
chain: B1 chain with A86E, A88E, A95E, E234A, E242A
modifications: left off: small tags and cut ends
notes: flag-tagged NPM phosphomutant T86E-S88E-T95E-T234A-S242A expressed by lentivirus

Experiments:
Type in all cases: cell-based
PTEC = test: Toxicity of pharmacologic agents in PTEC; details: exposure to the IC50 dose for 48-72 hr; data not shown
Excerpt: The inventors have also tested pharmacologic agents that disrupt NPM-Bax at specific steps in the cell death pathway (outlined in FIG. 11). These agents include geronylgeronylacetone (GGA), a potent Hsp70 inducer86, avrainvillamide, and NSC34888437. […] The inventors recently reported that GGA induces Hsp70 in murine PTEC and in the intact murine kidney. Hsp70 markedly reduces NPM-Bax complex formation during ischemic stress by 2 distinct mechanisms: a nucleolar-restricted Hsp70 mutant limits NPM translocation into the cytosol, whereas a cytosol restricted Hsp70 mutant sequesters […].

primary human PTECs = details: PTECs, ATP depletion; versus control peptide
Experimental: Exposure to metabolic inhibitors is an established model of ischemic stress that reduces ATP content to, 10% of baseline values until recovery is initiated.24,26 To achieve ATP depletion, cells were washed three times in glucose-free DMEM (Invitrogen, Carlsbad, CA) followed by incubation in glucose-free DMEM containing sodium cyanide (5 mM) and 2-deoxy-glucose (5 mM) for the indicated times.26
Recovery was initiated by replacing the stress medium described above with complete primary cell culture medium containing glucose and substrates that support the rapid restoration of cell ATP.27
For in vitro testing in primary human PTECs, peptides ([…]) were tested that replicate the Bax domain responsible for binding NPM,34 or two peptides designed to interfere with NPM function were compared with a random nonspecific sequence of the same length (control). Peptides intended to interfere with NPM function overlap key phosphorylation sites located at the NPM amino terminus (peptide 2) or carboxy terminus (peptide 3) detected by mass spectrometry. To improve cell uptake, all peptides contained a cell-penetrating sequence13. For in vivo experiments, a renal-targeting sequence (NLS) was added to enhance renal peptide uptake.35 Peptides were commercially synthesized (Biomatik, Wilmington, DE) J Am Soc Nephrol 30: ccc-ccc, 2018 Nucleophosmin in AKI 3www.jasn.org BASIC RESEARCHas follows: NPM-Bax blocking peptide: Ac-KKKRKV-(bA)-[…]-COOH (SEQ ID NO: 8); peptide 2: AC-PKKKRKV-(bA)-[…]-COOH (SEQ ID NO: 9); and peptide 3: AC-PKKKRKV-(bA)-ESFKK-QEKTPKTPKGPSSVED-IKAK-COOH (SEQ ID NO: 10). A single dose ([…] of the NPM-Bax blocking or control peptide) was administered by tail vein injection immediately after release of the pedicle clamps(0 timepoint) […] in each experimental group. A total of 42 control and 56 experimental animals were studied.
Transient exposure to metabolic inhibitors replicates ischemia in vivo by activating Bax and causing cell death.13,29,36-38 Cell viability was assayed using a modified colorimetric technique (MTTassay).37 The number of surviving cells is expressed as a percentage of viable control cells detected at baseline. Serum BUN and creatinine levels were measured in tail vein blood samples for 7 days after ischemia using QuantiChrom BUN or creatinine assay kits (BioAssay Systems, Hayward, CA) according to the manufacturer's instructions.

[1] = test system: primary murine proximal tubule epithelial cells (PTECs); test: Functional bioassays of flag-tagged NPM phosphomimic proteins expressed in PTECs; details: for Postischemia cell survival: 60 minutes ATP depletion, FIG. 5E; for NPM localization in resting cells: absence of ischemic stress, FIG. 5A; for NPM-Bax complex formation: after ATP depletion, FIG. 5C; for NPM and active Bax accumulation in isolated mitochondria: after ischemic stress, FIG. 5D; for NPM oligomeric state: resting cells, native gel, FIG. 5B
Excerpt: The biologic behavior of nucleophosmin (NPM) phosphomimic proteins assessed using functional bioassays performed in primary murine proximal tubule epithelial cells (PTECs) that express flag-tagged wild type (WT), a normal (Nor-M or NrNPM) NPM mimic protein, or a stress (Stre-M, StNPM, or Stress-M) NPM mimic protein that replicates differential NPM phosphorylation. […] EV, empty sgOpti vector; RDU, relative density unit. *P, 0.05 for Nor-M and Stress-M NPM phosphomimics versus control (CTL).
Human NPM cDNA (catalog no. 34553; Addgene, Cambridge, MA) and pCDH lentivector systems (System Biosciences, Mountain View, CA) were used to generate NPM wild-type, “NPM stress mimic” (T86E-S88E-T95E-T234A-S242A), and “NPM normal mimic” (T86A-S88A-T95A-T234E-S242E) lentiviral expression plasmids by PCR-based mutagenesis with a flag tag fused to the 59 open reading frame. PCR products were cloned into pCDH vector BamHI/EcoRI sites. All constructs were confirmed by DNA sequencing before cotransfection with pPACKG1 lentivector packaging plasmids into HEK293NT cells to generate lentipseudoviral particles. The resultant pseudoviruses were harvested and purified, and titers were determined according to the manufacturer's instructions. Cells were exposed to virus (MOT 5-8) diluted in Opti-MEM (Invitrogen). After 6 hours incubation with virus-infected medium, a complete culture medium was substituted for an additional 16-hour incubation period.
To determine the biologic role of differential NPM phosphorylation at these five serine/threonine sites and the contribution to cytotoxicity, two flag-tagged NPM phosphomutant proteins as well as wild-type NPM were generated and introduced into human proximal tubule cells. These two mimic proteins replicated the phosphorylation state of NPM in either its normal or stressed configuration at the five differentially phosphorylated sites identified by mass spectrometry (FIG. 4). Specific bioassays were then used to assess the effect of these five post-translational phosphorylation changes on toxic NPM behaviors, including translocation, deoligomerization, NPM-Bax complex formation, mitochondrial NPM and Bax accumulation, and cell death.
Based on this phospho-proteomic data, 32 site-specific, amino terminal, flag-tagged NPM proteins with differential phosphorylation were generated (see FIG. 4B) and placed in a lentiviral vector ([…] phospho-mimic proteins; ref Wang, Havasi et al. 2011). Both the plasmid sequence and protein expression were confirmed. Serine or threonine residues in each of the NPM phospho-mimics was rendered either nonphosphorylatable (alanine substitution) or phospho-mimetic (glutamic acid substitution) at each of the 5 NPM residues identified by mass spec to be altered by ischemia. These NPM phospho-mimics represent all of the possible combinations of constitutively non-phosphorylated and phosphorylated variants at all of the 5 phosphosites ([…], see table, FIG. 4B). The flag epitope facilitates immunohistochemistry for detecting NPM distribution, NPM oligomerization and immunoprecipitation (IP) for detecting interaction between Bax and each NPM phospho-mimic. To establish a causal link between phosphorylation and NPM-function, a flag-tagged NPM mimic that replicated the NPM phospho-state in healthy PTEC and kidney tissue (#10, “normal NPM mimic”) or replicated NPM phosphorylation in post-ischemic cells and tissue (#11; “stress-NPM mimic”; FIG. 4B) was introduced into primary murine PTEC for further study. Dramatic differences in the biologic behavior of these 2 NPM phospho-mimics were detected. […] Using this phospho-data generate 2 new therapeutic peptides that target either T86, S88 and T95 or T232 and S240 were generated (FIG. 4A) and tested (FIG. 7). Screening the remaining NPM mimic proteins can identify the specific function of all 5 phospho-sites.

[2] = listed as normal NPM-phospho-mimic

| Molecule | PTEC morphology and toxicity (PTEC) | Cell survival after ischemic stress (primary human PTECs) | Postischemia cell survival [1] | NPM-Bax complex formation [1] | NPM and active Bax accumulation in isolated mitochondria [1] | NPM oligomeric state [1] | also measured |
| --- | --- | --- | --- | --- | --- | --- | --- |
| O=C(C[n+]1cccc2cc(Cl)ccc21)c1cccc([N+](=O)[O-])c1.[Br-] [NSC34888437] | does not alter PTEC morphology or cause significant toxicity | – | – | – | – | – | – |
| CC1(C)C=Cc2c(ccc3c2[N+]([O-])=C2C3=C[C@@]34NC(=O)[C@]5(CCCN5C3=O)C[C@H]4C2(C)C)O1 [avrainvillamide] | does not alter PTEC morphology or cause significant toxicity | – | – | – | – | – | – |
| AC-PKKKRKV-(bA)-ESFKK-QEKTPKTPKGPSSVED-IKAK-COOH (PKKKRKVAESFKKQEKTPKTPKGPSSVEDIKAK; N-acetyl, NLS PKKKRKV-betaAla N-terminal; MOD_RES (8)..(8) Beta-alanine) [peptide #3] | – | significantly improve cell survival | – | – | – | – | – |
| AC-PKKKRKV-(bA)-TLKMSVQPTVSLGGFEITPPVVLRLK-COOH (PKKKRKVATLKMSVQPTVSLGGFEITPPVVLRLK; N-acetyl, NLS PKKKRKV, beta-alanine linker; MOD_RES (8)..(8) Beta-alanine) [peptide #2] | – | significantly improve cell survival | – | – | – | – | – |
| B1 | – | – | significantly reduced cell death; also recorded: improved PTEC survival | decreased NPM-Bax complex formation | decreased | formed large oligomers | NPM localization in resting cells ([1]; listed as normal NPM phosphomimic): accumulated in a nucleolar pattern; NPM localization in resting cells [1, 2]: exclusively localized to nucleoli; NPM-Bax complex formation [1, 2]: minimally complexed with Bax; NPM and active Bax accumulation in isolated mitochondria [1, 2]: did not accumulate in isolated mitochondria; NPM oligomeric state [1, 2]: remained in the oligomerized state |
| B2 | – | – | significantly lower | substantially greater | exceeded that observed with wild-type or normal mimic NPM | accumulated as small monomers | Postischemia cell survival ([1]; listed as stress NPM mimic): significantly decreased PTEC survival; NPM localization in resting cells ([1]; listed as NPM stress mimic protein): localized to the cytosol; NPM localization in resting cells ([1]; listed as stress NPM mimic): exclusively localized to the cytosol; NPM-Bax complex formation ([1]; listed as stress NPM mimic): markedly increased NPM-Bax complex formation; NPM and active Bax accumulation in isolated mitochondria ([1]; listed as stress NPM mimic): dramatically increased NPM accumulation in isolated mitochondria; NPM oligomeric state ([1]; listed as stress NPM mimic): caused marked NPM de-oligomerization |
